Reference: patent US20210196823A1, “Methods of Treating Metabolic Disease” (Pfizer Inc., priority 2018, published 2021)
“Also recorded” adds a separate entry of the source.

Tests used:
Type in all cases: cell-based
[1] = test system: Huh7 cells; test: qRT-PCR of BMP/SMAD target genes in Huh7 cells treated with ERFE; conditions: Huh7, mouse ERFE 10 μg/ml vs vehicle
Experimental: (§1) (b) Gene expression microarray: Microarray analysis of Huh7 cells treated with mouse or human erythroferrone was carried out to test the activity of erythroferrone on the BMP/SMAD signalling pathway. Generally cell treatments were carried out according to the following protocol: Huh7 and HepG2 were cultured in Dulbecco's Modified Eagle's Medium—High Glucose (Sigma), supplemented with 10% Fetal Bovine Serum (Sigma), 1% Penicillin-Streptomycin (Sigma) and 1% L-Glutamine (Sigma), unless otherwise indicated. Cells were plated 24 h before treatments in 24-well (gene expression analysis) or 12-well (protein analysis) cell culture plates. At the time of treatment, cells were washed with PBS and fresh media was added.
(§2) (c) RNA isolation, cDNA synthesis and qRT-PCR: Suppression of several BMP-target genes: HAMP, ID1, ID3, SMAD6 and SMAD7 was further confirmed by qRT-PCR. Cells were lysed and RNA was isolated using the RNeasy Plus kit (Qiagen), followed by RNA quantification and quality assessment using Nanodrop (Thermo Fisher). cDNA was synthesized using the High Capacity RNA-to-cDNA kit (Applied Biosystems). Gene expression was assessed using quantitative real-time PCR with Taqman Gene Expression Master Mix and inventoried Taqman Gene expression assays (Applied Biosystems) specific for the genes of interest according to the manufacturer's instructions.

[2] = test system: HepG2 cells; test: HAMP and ID1 qRT-PCR in HepG2 cells treated with BMPs with or without mouse ERFE; conditions: 2 nM BMP 2/6, BMP6 or BMP7 + 10 μg/ml mouse ERFE, 6 h, serum-free media
Experimental: as §1
as §2, with “instructions. […]” for “instructions.”

[3] = test system: SMAD1/5/8 phosphorylation in Huh7 cells; test: Western blot of SMAD1/5/8 phosphorylation in Huh7 cells
Experimental: (d) ERFE effects on BMP/SMAD signalling measured by SMAD 1/5/8 phosphorylation: To confirm the suppression of BMP/SMAD signalling, we analysed phosphorylation of SMAD1/5/8, required to transduce the signal leading to HAMP upregulation. Analysis was carried out by Western blot according to the following methodology: Cells were lysed at 4° C. using RIPA buffer (Thermo Scientific) containing protease/phosphatase inhibitor (Cell Signalling). Lysates were denatured at 95° C. and separated on a 10% SDS polyacrylamide gel (Bio-Rad), following the manufacturer's instruction. Protein sizes were estimated by using the Novex Sharp Pre-Stained Protein Ladder (life technologies). Protein was transferred to a nitrocellulose membrane, then blocked with milk/TBS for 1 h. Antibodies used were anti-P-SMAD 1/5 (S463s/465)/9(S465/467) (Cell signalling 13820S 1:500), anti-Smad1 (Cell Signalling 6944S 1:500), anti-β-actin-peroxidase (Sigma A3854 1:10 000), and Anti-rabbit IgG HRP conjugated (RnD systems HAP008 1:5000). […] In this case Huh7 cells were treated with mouse ERFE (10 μg/ml) or BMP6 and LDN, a small molecule inhibitor of BMPs, (100 nM), alone or in combination, for 30 min and pSMAD/SMAD ratios values were calculated by densitometry. Erythroferrone caused a decrease in SMAD phosphorylation relative to non-treated cells (FIG. 3D).

[4] = test system: Huh7 cells; test: HAMP and ID1 qRT-PCR in Huh7 cells treated with BMPs with or without mouse ERFE; conditions: 2 nM BMP 2/6, BMP5, BMP6 or BMP7 + 10 μg/ml mouse ERFE, 6 h, serum-free media
Experimental: as §1
as §2, with “instructions. […]” for “instructions.”

B1: mouse ERFE: recombinant mouse erythroferrone (SEQ ID NO: 2); monoFC-muErfe is a monomeric FC murine ERFE fusion (protein, listed as Mus musculus)
chain: MASRRPVGARTLLACASLLAAMGLGVPESAEPVGTHARPQPPGAELPAPPANSPPEPIAHAHSVDPRDAWMLFVKQSDKGINSKRRSKARRLKLGLPGPPGPPGPQGPPGPFIPSEVLLKEFQLLLKGAVRQRESHLEHCTRDLPASGSPSRVPAAQELDSQDPGALLALLAATLAQGPRAPRVEAAFHCRLRRDVQVDRRALHELGIYYLPEVEGAFHRGPGLNLTSGQYTAPVAGFYALAATLHVALTEQPRKGPTRPRDRLRLLICIQSLCQHNASLETVMGLENSSELFISVNGVLYLQAGHYSVFLDNASGSSLTVRSGSHFSAILLGL
Q: How did the “expression of BMP-target genes HAMP, ID1, ID3, SMAD6 and SMAD7” value [1] turn out when B1 was run?
A: Suppression

Q: And the “expression of FGA (JAK/STAT3 target gene)” value [1]?
A: no changes

Q: What about the “HAMP and ID1 expression / BMP/SMAD signalling in BMP-treated HepG2 cells” value [2] of the same molecule?
A: suppresses

Q: And the “SMAD phosphorylation after BMP6 stimulation” value ([3]; Huh7, mouse ERFE 10 μg/ml with BMP6, 30 min)?
A: blunted the increase

Q: What about the “SMAD 1/5/8 phosphorylation relative to non-treated cells” value ([3]; Huh7, mouse ERFE 10 μg/ml, 30 min, baseline) of the same molecule?
A: decrease

Q: What about the “HAMP and ID1 expression / BMP/SMAD signalling in BMP-treated Huh7 cells” value [4] of the same molecule?
A: suppresses; also recorded: suppression
